Reference: article PMC3158780

Target: insoluble type I collagen (UniProt P02453)
Assay: co-sedimentation; batch binding to 5 mg insoluble substrate; protein 15 µg/ml in 80 µl buffer A (50 mM Tris-HCl, 10 mM CaCl2, 3 M NaCl, pH 8.0), 0°C, 60 min; supernatant after centrifugation on SDS-PAGE

isolated CTE domain of SptA (CTE*) (domain or fragment)
percent bound: 50%
